These results are taken from patent US20120208867A1.

Experiment [1] has as its target TLR-2 in which His-tag was added to the N-terminus (His-tag-added TLR-2). Nature of the experiment: pull-down of HMGB1 (2 ug) with His-tag-added TLR-2 (2 ug) on Co2+ agarose beads, Western blot with anti-HMGB1 antibody; tRNA added, in the presence of 2 ug of RNA aptamer R8c6_1-18 as inhibitor.
Experiment [2] shares this target. Nature of the experiment: pull-down of HMGB1 (2 ug) with His-tag-added TLR-2 (2 ug) on Co2+ agarose beads, Western blot with anti-HMGB1 antibody; lane '+': tRNA added, no RNA aptamer (reference lane, set to 100).
For experiment [3] the target is unchanged. Nature of the experiment: pull-down of HMGB1 (2 ug) with His-tag-added TLR-2 (2 ug) on Co2+ agarose beads, Western blot with anti-HMGB1 antibody; tRNA added, in the presence of 1 ug of 40N RNA library (comparative example).
The target is the same in experiment [4]. Description: pull-down of HMGB1 (2 ug) with His-tag-added TLR-2 (2 ug) on Co2+ agarose beads, Western blot with anti-HMGB1 antibody; tRNA added, in the presence of 4 ug of 40N RNA library (comparative example).
Experiment [5] shares this target. Description: pull-down of HMGB1 (2 ug) with His-tag-added TLR-2 (2 ug) on Co2+ agarose beads, Western blot with anti-HMGB1 antibody; tRNA added, in the presence of 2 ug of 40N RNA library (comparative example). Background: Immunoblotting shows a protein as a band on a membrane.
Experiment [6] shares this target. Description: pull-down of HMGB1 (2 ug) with His-tag-added TLR-2 (2 ug) on Co2+ agarose beads, Western blot with anti-HMGB1 antibody; tRNA added, in the presence of 4 ug of RNA aptamer R8c6_1-18 as inhibitor.
Experiment [7] has the same target. Description: pull-down of HMGB1 (2 ug) with His-tag-added TLR-2 (2 ug) on Co2+ agarose beads, Western blot with anti-HMGB1 antibody; lane '-': no tRNA, no RNA aptamer.
For experiment [8] the target is unchanged. Nature of the experiment: pull-down of HMGB1 (2 ug) with His-tag-added TLR-2 (2 ug) on Co2+ agarose beads, Western blot with anti-HMGB1 antibody; tRNA added, in the presence of 1 ug of RNA aptamer R8c6_1-18 as inhibitor.

Sequence of HMGB1 protein (High-mobility group box 1 protein) (ligand) (P09429 whole entry): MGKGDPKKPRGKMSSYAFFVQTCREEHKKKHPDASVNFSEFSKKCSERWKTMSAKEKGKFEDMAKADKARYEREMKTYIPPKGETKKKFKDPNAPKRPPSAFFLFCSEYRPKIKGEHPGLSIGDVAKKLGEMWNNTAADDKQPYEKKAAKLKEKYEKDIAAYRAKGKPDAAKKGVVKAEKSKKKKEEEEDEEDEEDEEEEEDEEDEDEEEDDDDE
Sequence of TLR-2 in which His-tag was added to the N-terminus (His-tag-added TLR-2) (O60603 whole entry): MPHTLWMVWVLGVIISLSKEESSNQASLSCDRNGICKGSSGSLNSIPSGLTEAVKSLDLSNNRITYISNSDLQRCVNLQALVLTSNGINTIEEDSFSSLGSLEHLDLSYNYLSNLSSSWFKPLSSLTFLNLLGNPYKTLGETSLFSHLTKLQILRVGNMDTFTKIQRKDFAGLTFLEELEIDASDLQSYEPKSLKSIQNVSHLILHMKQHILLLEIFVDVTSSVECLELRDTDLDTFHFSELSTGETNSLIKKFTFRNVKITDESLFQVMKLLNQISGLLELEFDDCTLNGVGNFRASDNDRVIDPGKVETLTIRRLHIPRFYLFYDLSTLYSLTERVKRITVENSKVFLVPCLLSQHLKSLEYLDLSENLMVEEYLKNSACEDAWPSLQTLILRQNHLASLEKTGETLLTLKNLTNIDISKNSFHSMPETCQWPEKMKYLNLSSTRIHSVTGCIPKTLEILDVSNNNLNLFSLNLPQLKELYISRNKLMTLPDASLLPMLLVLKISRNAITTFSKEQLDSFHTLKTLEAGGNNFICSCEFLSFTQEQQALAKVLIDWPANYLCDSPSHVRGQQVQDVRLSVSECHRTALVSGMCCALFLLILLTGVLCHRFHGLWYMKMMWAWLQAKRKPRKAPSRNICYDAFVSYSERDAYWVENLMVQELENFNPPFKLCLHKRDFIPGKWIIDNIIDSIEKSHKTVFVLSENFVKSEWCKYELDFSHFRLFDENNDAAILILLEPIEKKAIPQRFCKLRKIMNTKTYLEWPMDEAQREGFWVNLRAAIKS

Consider “HMGB1 protein (High-mobility group box 1 protein) (ligand)”, for which the HMGB1/TLR-2 (HMGB1 band corrected for TLR-2, relative to lane '+' = 100) is 61 in experiment [1]; 100 in experiment [2]; 108 in experiment [3]; 85 in experiment [4]; 84 in experiment [5]; 29 in experiment [6]. For the same substance, the HMGB1/TLR-2 (HMGB1 band corrected for TLR-2, relative to lane '+' = 100) is 60 in experiment [7] and 113 in experiment [8].
